# Assay results taken from US20030207791A1 (published 2003).
# B1: AML1-ETO (other, UniProt Q01196 1-177, looked up)
# chain: MRIPVDASTSRRFTPPSTALSPGKMSEALPLGAPDAGAALAGKLRSGDRSMVEVLADHPGELVRTDSPNFLCSVLPTHWRCNKTLPIAFKVVALGDVPDGTLVTVMAGNDENYSAELRNATAAMKNQVARFNDLRFVGRSGRGKSFTLTITVFTNPPQVATYHRAIKITVDGPREPRDRTEKHSTMPDSPVDVKTQSRLTPPTMPPPPTTQGAPRTSSFTPTTLTNGTSHSPTALNGAPSPPNGFSNGPSSSSSSSLANQQLPPACGARQLSKLKRFLTTLQQFGNDISPEIGERVRTLVLGLVNSTLTIEEFHSKLQEATNFPLRPFVIPFLKANLPLLQRELLHCARLAKQNPAQYLAQHEQLLLDASTTSPVDSSELLLDVNENGKRRTPDRTKENGFDREPLHSEHPSKRPCTISPGQRYSPNNGLSYQPNGLPHPTPPPPQHYRLDDMAIAHHYRDSYRHPSHRDLRDRNRPMGLHGTRQEEMIDHRLTDREWAEEWKHLDHLLNCIMDMVEKTRRSLTVLRRCQEADREELNYWIRRYSDAEDLKKGGGSSSSHSRQQSPVNPDPVALDAHREFLHRPASGYVPEEIWKKAEEAVNEVKRQAMTELQKAVSEAERKAHDMITTERAKMERTVAEAKRQAAEDALAVINQQEDSSESCWNCGRKASETCSGCNTARYCGSFCQHKDWEKHHHICGQTLQAQQQGDTPAVSSSVTPNSGAGSPMDTPPAATPRSTTPGTPSTIETTPR
# notes: The plasmid list names pcDNA3-myc-AML1-ETO; Also made in bacteria as an MBP fusion, MBP removed by factor Xa; also called myc-AML1-ETO
# B2: isolated coiled coil domain of PML (other)
# chain: SELKCDISAEIQQRQEELDAMTQALQALQEQDSAEGAVHAQMHAAVGQLGRARAETEELIRERVRQVVAHVRAQERELLEAVDARYQRDYEEMASRLGRLDAVLQRIRTGSALVQRMKCYASDQEVLDMHGFLRQALCRLR
# notes: Expressed in BL21 as a GST fusion and freed by site-specific cleavage; also called CC; CC domain of PML
# Experiments:
# [1] = target: the molecule itself; test: gel filtration
# [2] = target: the molecule itself; test: gel filtration and in vitro cross-linking of the purified domain
Protein,binding result [1],binding result [2]
B1,binds,
B2,,binds
